Reference: the supplement of paper PMC10567573

B1: DYRK1B (parent)
chain: RFQDLVLRMLEYEPAARISPLGAL
B2: DCTD (parent)
chain: VKGCSMYVALFPCNECAKLIIQAG

Variants of: B1
Assay: protein stability index of a GFP-peptide fusion (GPS, HEK-293T) (PSI 1-6); higher = more stable
Conditions: c terminus: a fixed tail appended
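Further: lentivirally expressed fusions sorted by FACS into six bins by GFP to DsRed ratio, PSI derived from sequencing read proportions per bin multiplied by bin number.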

Protein stability index of substitutions, site by site:
L24: Q 2.27 | T 4.33 | S 2.08

Variants of: B2
Assay: as above
Conditions: c terminus: a fixed tail appended

Protein stability index, by site and new letter:
F11: Y 2.95 | D 4.47 | S 2.83 | C 3.11
A9: W 1.94 | C 2.79 | L 3.68 | G 3.16 | F 3.38
Q22: P 2.51 | E 3.39
A23: P 2.84 | E 2.7 | L 5.75 | G 2.31
C4: P 1.75 | R 3.18 | S 3.15 | I 2.89 | T 2.88 | E 1.71 | F 2.92 | L 2.78 | V 2.86
C16: M 3.57 | N 5.28 | K 5.31
I21: S 2.24 | V 2.14 | L 1.76 | T 1.83 | E 1.31 | W 2.72
L19: F 3.88 | E 5.26 | T 2.23 | D 2.4 | W 2.99 | M 2.14 | C 3.04
K2: T 3.52 | D 2.7 | P 2.71 | W 3.93 | S 3.47 | R 2.54 | F 2.27 | H 2.42 | V 4.19
G24: N 2.86 | A 2 | H 3.84 | E 2.98 | V 2.98 | T 3.17
S5: K 2.44 | C 1.73 | M 1.55 | Y 1.87 | P 3.12 | N 2.91 | H 3.63 | F 2.58 | D 2.2 | W 3.75 | E 3.58
I20: H 2.4
V8: L 1.94 | K 3.21 | T 2.19 | M 2.92 | E 1.75 | Q 4.51 | N 1.49 | G 1.28 | W 1.9 | P 2.22 | C 1.9 | S 2.3 | A 2.64 | F 3.62 | Y 3.08
L10: Q 3.35 | A 2.48 | P 3.06 | S 2.2
P12: R 2.9 | Q 1.81 | V 4.55 | N 3.57 | T 2.86 | G 2.57
Y7: L 4.45 | H 1.78 | A 2.65 | C 2.84 | M 4.09 | I 3.49 | F 2.5 | T 1.91 | W 2.92 | D 1.68
K18: H 2.55 | L 1.05 | W 1 | I 1.99 | V 4.91 | S 4.23 | C 4.05
A17: H 3.41 | N 3.32 | I 3.08 | T 3.02 | Q 3.48
M6: H 2.21 | E 2.2 | N 2.2 | A 3.35 | Q 3.17 | L 4.51 | R 1.58 | I 3.81 | Y 2.7 | D 1.7 | T 2.33
C13: E 2.59 | P 1.7
N14: F 2.99 | M 2.9 | K 1.92 | P 2.04
V1: F 3.94 | A 1.7 | P 2.74 | T 3.12 | M 3.04 | C 2.61 | W 2.09 | H 1.54 | S 3.18 | E 2.15 | I 2.68 | K 3.98 | G 3.72
G3: M 4.03 | F 2.27 | P 4.11 | V 2.23 | D 3.8 | C 2.07 | N 3.06 | A 2.9 | K 2.53 | Q 3.85 | T 3.43 | W 4.42 | I 3.94
E15: V 1.31 | W 4.68 | H 3.15 | G 3.97 | Q 2.62 | I 3.06 | N 2.17
